# In patent US20170306033A1 (Amgen, published 2017):
# Where a chain is given by its changes, count along the chain named.
# T1: human PAC1 receptor (human, UniProt P41586 21-468)
# T1 sequence: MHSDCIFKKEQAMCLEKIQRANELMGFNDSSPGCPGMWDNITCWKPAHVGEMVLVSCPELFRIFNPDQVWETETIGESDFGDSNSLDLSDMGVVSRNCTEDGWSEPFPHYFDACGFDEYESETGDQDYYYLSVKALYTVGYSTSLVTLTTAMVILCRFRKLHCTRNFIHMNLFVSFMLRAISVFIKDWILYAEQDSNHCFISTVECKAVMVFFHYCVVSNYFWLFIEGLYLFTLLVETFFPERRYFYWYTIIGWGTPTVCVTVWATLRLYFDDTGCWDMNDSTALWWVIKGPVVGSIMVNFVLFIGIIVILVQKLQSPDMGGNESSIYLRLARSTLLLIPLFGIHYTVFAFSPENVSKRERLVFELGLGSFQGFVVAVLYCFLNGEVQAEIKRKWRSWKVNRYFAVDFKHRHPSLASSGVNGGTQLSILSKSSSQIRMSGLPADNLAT
# B1: iPS:327681 (bispecific antibody, human IgG1, kappa, N297G)
# light 1: DIQMTQSPSSLSASVGDRITITCRASQSISRYLNWYQQKPGKAPKLLIYAASSLQSGIPSRFSGSGSGTDFTLTINSLQPEDFATYFCQQSYSPPFTFGEGTKVDIKRTVAAPSVFIFPPSDEQLKSGTASVVCLLNNFYPREAKVQWKVDNALQSGNSQESVTEQDSKDSTYSLESTLTLSKADYEKHKVYACEVTHQGLSSPVTKSFNRGEC
# heavy 1: not shown
# light 2: EIVLTQSPGTLSLSPGERATLSCRASQSVSSGYLTWYQQKPGQAPRLLIYGASSRATGIPDRFSGSGSGTDFTLTISRLEPEDFAVYYCQQYGNSLSRFGKGTKLEIKRTVAAPSVFIFPPSDEQLKSGTASVVCLLNNFYPREAKVQWKVDNALQSGNSQESVTEQDSKDSTYSLKSTLTLSKADYEKHKVYACEVTHQGLSSPVTKSFNRGEC
# heavy 2: QVQLVESGGGVVQPGRSLRLSCAASGFTFSSYGMHWVRQAPGKELEWVAVIWYDGSNKYYAESVKGRFIISRDKSKNTLYLQMNSLRAEDTAVYYCARAGGIAAAGLYYYYGMDVWGQGTTVTVSSASTKGPSVFPLAPSSKSTSGGTAALGCLVKDYFPEPVTVSWNSGALTSGVHTFPAVLQSSGLYSLESVVTVPSSSLGTQTYICNVNHKPSNTKVDKKVEPKSCDKTHTCPPCPAPELLGGPSVFLFPPKPKDTLMISRTPEVTCVVVDVSHEDPEVKFNWYVDGVEVHNAKTKPCEEQYGSTYRCVSVLTVLHQDWLNGKEYKCKVSNKALPAPIEKTISKAKGQPREPQVYTLPPSRKEMTKNQVSLTCLVKGFYPSDIAVEWESNGQPENNYKTTPPVLKSDGSFFLYSKLTVDKSRWQQGNVFSCSVMHEALHNHYTQKSLSLSPGK
# B2: iPS:327677 (bispecific antibody, human IgG1, kappa, N297G)
# light 1: not shown
# heavy 1: not shown
# light 2: B1 light 2 with K101Q
# heavy 2: not shown
# B3: iPS:327678 (bispecific antibody, human IgG1, kappa, N297G)
# light 1: not shown
# heavy 1: not shown
# light 2: B1 light 2 with K101Q
# heavy 2: not shown
# B4: iPS:327685 (bispecific antibody, human IgG1, kappa, N297G)
# light 1: not shown
# heavy 1: not shown
# light 2: B1 light 2 with K101Q
# heavy 2: not shown
# B5: iPS:327684 (bispecific antibody, human IgG1, kappa, N297G)
# light 1: EIVLTQSPATLSLSPGERATLSCRASQSVGRSLHWYQQKPGQAPRLLIKYASQSLSGIPARFSGSGSGTDFTLTISSLEPEDFAVYYCHQSSRLPFTFGEGTKVDIKRTVAAPSVFIFPPSDEQLKSGTASVVCLLNNFYPREAKVQWKVDNALQSGNSQESVTEQDSKDSTYSLESTLTLSKADYEKHKVYACEVTHQGLSSPVTKSFNRGEC
# heavy 1: not shown
# light 2: B1 light 2
# heavy 2: B1 heavy 2
# B6: iPS:327683 (bispecific antibody, human IgG1, kappa, N297G)
# light 1: DIQLTQSPSFLSASVGDRVTITCRASQSIGRSLHWYQQKPGKAPKLLIKYASQSLSGVPSRFSGSGSGTEFTLTISSLQPEDFATYYCHQSSRLPFTFGEGTKVDIKRTVAAPSVFIFPPSDEQLKSGTASVVCLLNNFYPREAKVQWKVDNALQSGNSQESVTEQDSKDSTYSLESTLTLSKADYEKHKVYACEVTHQGLSSPVTKSFNRGEC
# heavy 1: not shown
# light 2: B1 light 2
# heavy 2: B1 heavy 2
# B7: iPS:327682 (bispecific antibody, human IgG1, kappa, N297G)
# light 1: not shown
# heavy 1: not shown
# light 2: B1 light 2
# heavy 2: B1 heavy 2
# B8: iPS:327291 (bispecific antibody, human IgG1, kappa, lambda, N297G)
# light 1: B5 light 1 with E100P
# heavy 1: not shown
# light 2: QSVLTQPPSVSAAPGQKVTISCSGSSSNIGNNYVSWYQQLPGTAPKLLIYDNNKRPSGIPDRFSGSKSGTSTTLGITGLQTGDEADYYCGTWDSRLSAVVFGGGTKLTVLGQPKANPTVTLFPPSSEELQANKATLVCLISDFYPGAVTVAWKADGSPVKAGVETTKPSKQSNNKYAAKSYLSLTPEQWKSHRSYSCQVTHEGSTVEKTVAPTECS
# heavy 2: QVQLVESGGGVVQPGRSLRLSCAASGFTFSSFGMHWVRQAPGKGLEWVAVISFDGSIKYSVDSVKGRFTISRDNSKNTLFLQMNSLRAEDTAVYYCARDRLNYYDSSGYYHYKYYGMAVWGQGTTVTVSSASTKGPSVFPLAPSSKSTSGGTAALGCLVKDYFPEPVTVSWNSGALTSGVHTFPAVLQSSGLYSLESVVTVPSSSLGTQTYICNVNHKPSNTKVDKKVEPKSCDKTHTCPPCPAPELLGGPSVFLFPPKPKDTLMISRTPEVTCVVVDVSHEDPEVKFNWYVDGVEVHNAKTKPCEEQYGSTYRCVSVLTVLHQDWLNGKEYKCKVSNKALPAPIEKTISKAKGQPREPQVYTLPPSRKKMTKNQVSLTCLVKGFYPSDIAVEWESNGQPENNYKTTPPVLKSDGSFFLYSKLTVDKSRWQQGNVFSCSVMHEALHNHYTQKSLSLSPGK
# Biological target: human CGRP receptor (human, UniProt Q16602 23-461; O60894 27-148)
# Experiment: cell-based or functional assay
# human CGRP receptor, sequence (Q16602 23-461 limits assumed, chain 1 of 2): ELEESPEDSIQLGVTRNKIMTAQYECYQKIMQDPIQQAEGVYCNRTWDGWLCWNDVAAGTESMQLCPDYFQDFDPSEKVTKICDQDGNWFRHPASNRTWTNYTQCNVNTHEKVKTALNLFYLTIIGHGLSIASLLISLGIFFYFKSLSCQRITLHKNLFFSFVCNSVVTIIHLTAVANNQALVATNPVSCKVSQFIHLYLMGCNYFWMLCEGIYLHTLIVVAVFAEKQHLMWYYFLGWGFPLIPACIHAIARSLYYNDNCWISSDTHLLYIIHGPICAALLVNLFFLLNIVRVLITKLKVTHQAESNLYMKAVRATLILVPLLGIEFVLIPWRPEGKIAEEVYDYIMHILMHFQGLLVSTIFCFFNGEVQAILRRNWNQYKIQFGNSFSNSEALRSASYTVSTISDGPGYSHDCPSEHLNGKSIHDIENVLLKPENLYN
# human CGRP receptor, sequence (O60894 27-148 limits assumed, chain 2 of 2): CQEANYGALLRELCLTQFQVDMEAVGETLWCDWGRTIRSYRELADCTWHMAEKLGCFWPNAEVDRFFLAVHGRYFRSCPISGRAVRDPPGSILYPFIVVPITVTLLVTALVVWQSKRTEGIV
row,% inhibition of human CGRPR,Binder
1,72%,B1
2,81%,B2
3,84%,B3
4,86%,B4
5,71%,B5
6,70%,B6
7,75%,B7
8,70%,B8

# Biological target: T1, human PAC1 receptor
# Experiment: cell-based or functional assay
row,% inhibition of human PAC1,Binder
1,73%,B1
2,43%,B2
3,43%,B3
4,85%,B4
5,74%,B5
6,30%,B6
7,12%,B7
8,89%,B8
